Read-outs that look alike come from different tables or passages of the source.
T1: Tat(44-61) (UniProt P04608 44-61)
T1 chain: GISYGRKKRRQRRRAHQN


Legend:
Hfq [1] = molecular target: T2, Hfq (E. coli, UniProt P0A6X3 1-102); assay: MST
Hfq [2] = molecular target: T2, Hfq; assay: EMSA
Tat(44-61) [3] = molecular target: T1, Tat(44-61); assay: MST
Hfq [4] = molecular target: T2, Hfq; assay: MST; remark: listed apart in the source
Tat(44-61) [5] = molecular target: T1, Tat(44-61); assay: MST

T2 sequence (P0A6X3 whole entry): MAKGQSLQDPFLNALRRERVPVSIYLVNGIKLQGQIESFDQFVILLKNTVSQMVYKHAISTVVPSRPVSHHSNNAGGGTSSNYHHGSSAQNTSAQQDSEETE

Binder | binding result (Hfq [1]) | further results
GACUCAGUGUCAGAGUCACUG (ssRNA) [J6] | no binding | 
AAUUCAAUGUUUUAGUUACUG (ssRNA) [J3] | binds | 
AAUUUAAUGUUUUAUUUAUUA (ssRNA) [J1] |  | binding result (Hfq [2]): binds
AUGUGGAAAAUCUCUAGCAGU (ssRNA) [21R+] |  | Kd (Tat(44-61) [3]): 6.3 ± 0.5 µM
AAUUUAAUGUUUUAGUUACUA (ssRNA) [J2] |  | binding result (Hfq [4]): binds
JM6 (dsRNA) RNA 1: GACUCAGUGUCAGAGUCACUG RNA 2: CAGUGACUCUGACACUGAGUC | no binding | 
ds21R (dsRNA) RNA 1: AUGUGGAAAAUCUCUAGCAGU RNA 2: ACUGCUAGAGAUUUUCCACAU |  | Kd (Tat(44-61) [5]): 7.4 ± 0.9 µM
AACUCAAUGUCUUAGUUACUG (ssRNA) [J4] | binds | 
